Assay results: PMC1853097, “The high-resolution NMR structure of the R21A Spc-SH3:P41 complex: Understanding the determinants of binding affinity by comparison with Abl-SH3” (BMC Structural Biology, 2007)
Where two headings read alike, the source gives them in different places. Values belong to the substance of their own block, whether it stands above or below them.

Key:
[1] = target: R21A mutant of the α-spectrin SH3 domain (R21A Spc-SH3); assay: ITC titration of R21A Spc-SH3 with p41; type: binding, chicken; conditions: 25°C, global fit of three isotherms, error = 95% confidence interval
Method: (§1) The binding between the p41 decapeptide and the R21A Spc-SH3 mutant domain was studied by a combination of isothermal titration calorimetry (ITC) and differential scanning calorimetry (DSC) experiments. ITC experiments were performed at 25°C at both pH 3.0 and 7.0, using several buffers at a concentration of 20 mM. Similar ITC experiments were made with the WT Spc-SH3 domain for comparison. […] The contribution of protonation/deprotonation processes to the binding enthalpy change, was estimated using three buffers differing in their ionization heats (Figure 1B).
(§2) ITC experiments were performed at 25°C in a high-precision MCS titration calorimeter (Microcal Inc., Northampton, MA). Prior to the experiments the protein was extensively dialyzed at 4°C against the appropriate buffer. The solutions of p41 peptide were prepared by dissolving the lyophilized material directly into the buffer and subsequently adjusting the pH of the solution. All buffers and solutions were filtered and degassed and equilibrated to the working temperature prior to each experiment. […] The binding constant, Kb, and the enthalpy change of binding, ΔHb, were determined by global fitting of the three binding isotherms measured in different buffers, using a model of binding to a single set of identical sites, according to the equation: […]

[2] = target: WT α-spectrin SH3 domain (WT Spc-SH3); assay: ITC titration of WT Spc-SH3 with p41; type: binding, chicken; parameters: unit not given here; conditions: 25°C, global fit of three isotherms, error = 95% confidence interval
Method: as §1, §2

[3] = tested on: WT α-spectrin SH3 domain (WT Spc-SH3); conditions: Spc-SH3 relative to Abl-SH3; cited from earlier work
From the text: Background SH3 domains are small protein modules of 60–85 amino acids that bind to short proline-rich sequences with moderate-to-low affinity and specificity. Interactions with SH3 domains play a crucial role in regulation of many cellular processes (some are related to cancer and AIDS) and have thus been interesting targets in drug design. The decapeptide APSYSPPPPP (p41) binds with relatively high affinity to the SH3 domain of the Abl tyrosine kinase (Abl-SH3), while it has a 100 times lower affinity for the α-spectrin SH3 domain (Spc-SH3). Results Here we present the high-resolution structu ... || Here we present the solution structure of the R21A mutant of the α-spectrin SH3 domain (Spc-SH3), both in its free form and bound to the decapeptide APSYSPPPPP (p41). We also show a complete thermodynamic characterization of the SH3-p41 interaction by calorimetric methods, together with an analysis of its effect upon the conformational dynamics of the SH3 domain using amide hydrogen-deuterium exchange (HX). The p41 peptide was initially designed as a high-affinity and high-specificity ligand for the Abl-SH3 domain [6] and the crystal structure of the complex was subsequently determined [[12] ...

[4] = target: SH3 domain of the Abl tyrosine kinase (Abl-SH3); conditions: cited from earlier work; for Kb (binding constant): ITC, 25°C
From the text: The affinities are much lower than that of the Abl-SH3 domain for p41 under similar conditions, which is in the range of 2 × 10^5 – 4 × 10^5 M^-1 [16]. In all cases the binding is driven by a large and favourable enthalpy change, partially compensated by an unfavourable entropy change. A similar thermodynamic signature is usually observed for the binding of proline-rich peptides to other SH3 domains. The very small variation of the binding enthalpies with the ionization enthalpy of the buffers ... || We have performed a global analysis of the ΔCpapp MathType@MTEF@5@5@+=feaafiart1ev1aaatCvAUfKttLearuWrP9MDH5MBPbIqV92AaeXatLxBI9gBaebbnrfifHhDYfgasaacH8akY=wiFfYdH8Gipec8Eeeu0xXdbba9frFj0=OqFfea0dXdd9vqai=hGuQ8kuc9pgc9s8qqaq=dirpe0xb9q8qiLsFr0=vr0=vr0dc8meaabaqaciaacaGaaeqabaqabeGadaaakeaacqqHuoarcqWGdbWqdaqhaaWcbaGaemiCaahabaGaemyyaeMaemiCaaNaemiCaahaaaaa@34D4@ curves using a simple model in which the protein/ligand binding and protein unfolding equilibria are coupled (Figure 2). This analysis is, with minor modifications, similar to that used previously for the analysis of the interaction be ...

p41 decapeptide [5] = assay: ITC (quoted from reference 16, Palencia et al. 2004); conditions: 25 °C (Table 1 title), not stated ('under similar conditions'), cited from earlier work; for Kb: scale: 10^3 M^-1
p41 decapeptide [6] = assay: ITC (Microcal MCS); conditions: 25 °C, added salt not given, 20 mM buffer only, Three buffers of different ionisation heat at each pH, each 20 mM. At pH 7.0: phosphate, hepes and imidazole (named in F); for Kb: scale: 10^3 M^-1

Kb (binding constant) ([1]; pH 3.0, 20 mM buffers): 18.2 ± 2.0 ×10^-3 M^-1
Kb (binding constant) ([1]; pH 7.0, 20 mM buffers (phosphate, hepes, imidazole), single set of identical sites): 18.1 ± 1.9 ×10^-3 M^-1
Kb (binding constant) ([2]; pH 3.0, 20 mM buffers): 5.8 ± 0.8 ×10^-3
Kb (binding constant) ([2]; pH 7.0, 20 mM buffers): 5.2 ± 1.2 ×10^-3
Substance: APSYSPPPPP [p41, synthetic decapeptide …, both acetylated and methylated in its termini]
times lower affinity for Spc-SH3 than for Abl-SH3 [3]: 100 times
Kb (binding constant) ([4]; pH 3.0): 210000 M⁻¹
Kb (binding constant) ([4]; pH 7.0): 323000 M⁻¹
affinity of the Abl-SH3 domain for p41 (binding constant) ([4]; under similar conditions): 200000 to 400000 M⁻¹

Substance: Abl tyrosine kinase SH3 domain (Abl-SH3)
ΔGb (p41 decapeptide [5]; pH 3.0): -30.4 kJ/mol
Kb (p41 decapeptide [5]; pH 3.0): 210
p (protons per mole of ligand bound) (p41 decapeptide [5]; pH 7.0): 0.1
ΔGb (p41 decapeptide [5]; pH 7.0): -31.4 kJ/mol
Kb (p41 decapeptide [5]; pH 7.0): 323

p (protons per mole of ligand bound) (p41 decapeptide [6]; pH 3.0): -0.29
ΔGb (p41 decapeptide [6]; pH 3.0): -24.3 kJ/mol
Kb (p41 decapeptide [6]; pH 3.0): 18.2
p (protons per mole of ligand bound) (p41 decapeptide [6]; pH 7.0): 0.06
ΔGb (p41 decapeptide [6]; pH 7.0): -24.3 kJ/mol
Kb (p41 decapeptide [6]; pH 7.0): 18.1
Substance: alpha-spectrin SH3 domain (Spc-SH3), R21A mutant R21A

p (protons per mole of ligand bound) (p41 decapeptide [6]; pH 3.0): -0.07
ΔGb (p41 decapeptide [6]; pH 3.0): -21.5 kJ/mol
Kb (p41 decapeptide [6]; pH 3.0): 5.8
p (protons per mole of ligand bound) (p41 decapeptide [6]; pH 7.0): 0.01
ΔGb (p41 decapeptide [6]; pH 7.0): -21.2 kJ/mol
Kb (p41 decapeptide [6]; pH 7.0): 5.2
Substance: alpha-spectrin SH3 domain (Spc-SH3), wild type
